Assay results: the DeepSol protein solubility set

Assay: soluble on expression in E. coli; label from the status in PepcDB or PDB records

Row | Sequence | soluble on expression in E. coli
1 | MNTEICSILERQARIFNVQKYSLYDGPGIRTLIFFKGCPLRCKWCSNPEGLERKYQVMYMEDSCIHCGNCIPVCPVNIHSFANRDGETVPTHYEPPKHTINRNIDCVGCRKCETICPKKALSIAGKDLKISEVLEIIQQDALFYLSSGGGVTLGGGEVTAQPEFATNLLMECQRMGINTAIETCGYAKLDTLLMIAQFTDLFLYDLKHIDPERHYELTGVRNERILDNLTELIHRGFNIKIRMPLIRGMNDSQDTIRRTMEFLQPFSSCKNFQGIDLLPYHKLGINKYKQLDMNYTITEDLSFKAEELDEIARIIGGYDLRAAVIRH | not soluble
2 | MTRNGTTSLQHDEMDTTSPPSGSGSGTAPPTTATSPPDYATAATLRSTPAQMSAAITVDLVVAAQREANFLRMIDRKAPLLYEPDVVNHALRRYETFWLPMQAAHPDLNVIPPLDVHWVWHTHMLSPIHYQEDCEKLVGKIIDHKLLSSDEIQKRYDSSVRAWDSYCSAEPYDFLASQTPPTAYKTKCNYDIAGAVQRQRNFNYQVSLPHYTSAKFLSDAVKRYIQFLLLKQTYADQFLTPCYDFDIIWHTHQVHPSSYLRDCTAIFGSLLKHDDTVNDRTKGSKLLKGEALTKKLWTTHFDEPFWRRGCMFRGHNAPAFLGFESQDLACISYGDIHVPSISLKDIPVQREQLRLKLCYGNKKVTTFNADLSQKQVTKSGFSLVWQPTESSTCASIVKFPFERRAAKDLTVELEIFDKMFLQRKDLIKLIGKATLDQLLPPSNSKSAHNVAELQLKASKDSEFTAKVNVTTSVNLNRELQLLVGDFVERQLSADSHLAYLAQCASLNRGALNANSTVHIASHSMVDTRDGTKYTVQVIHSAPLLLSMILVYGREQRLLSMAHLIGADSLPSRDQLDNNLVPFLPHLSNAEERAFVILNKEGDYAIIKGKWSGFSRKQSATKGQKAKPGNPGRLHVDAFNLLKNTVQKLEVPSADGSALFLIGDAQARLPGKRIECRSTNTAEQIASIFCVATLFVLCNPDKIRSRNDSTSVGHQAHKWPLTLACGYGRQLPTNRLLLSADQDGLGGCEIAPMLMCGVGCDGAACGACGACGACGACGGCGGCGGCGGCGGCG | not soluble
3 | MYPSIKETMRVQLSMEGSVNYHAFKCTGKGEGKPYEGTQSLNITITEGGPLPFAFDILSHAFQYGIKVFAKYPKEIPDFFKQSLPGGFSWERVSTYEDGGVLSATQETSLQGDCIICKVKVLGTNFPANGPVMQKKTCGWEPSTETVIPRDGGLLLRDTPALMLADGGHLSCFMETTYKSKKEVKLPELHFHHLRMEKLNISDDWKTVEQHESVVASYSQVPSKLGHN | soluble
4 | MESKLEQNVTAMMSSTGASGITVADSEGVRLHSAGKITDMANVGSLMIADAKNMFPKGTRNKKNSYPIVTLHSSDGSKTTKFLFENLKILNVLFKNQQISYYLLQKPEISGFSYKKSVFFSNFLSENLKIF | soluble
5 | GPGSMKLRCFLLRYYPPGITLEYETSAGQVGQKTIGLLSLTPTTPLEPLVDKIIAEEPLLNGKYHDQIVTYLQRLVEKLIAGNNPNQTFTLFKSLRAHMLPLTNCAFNKNGTKFVTGSYDRTCKVWETATGNELVSLEGHRNVVYCVGFNNPYGNRVATGSFDKTCKIWDGESGQCLHTLTGHVTEIVCMSFNPQSTLIGTGSMDNTAKVWDVETGQELHTLMDHTAEIVALNFNTYGDLIVTGSFDHTAKLWDVRTGTVVHTLREHRGEISSVQFNYASNLVVTGSIDRTCKLWDVASGRCVSTLRGHTDEVLDVAFSVSGNMVASASADTTARVYNTATCHCIASLNDHEGEISKLEFNPQGTKIITASGDKRCNLWSVETGQVLQSLVGHTDEIFSCSFNYEGDTILTGSKDNTCRIWKS | not soluble
6 | MDQFVNHLSCTALLVGKKASVDGSTMIARNEDASGGINPKRFIVVQPADQPQRYVSTFNGFQLDLPQTPLQYTCTPVADQSHGTWGEAGINSENVAMSATETEFTNTTMLGLDPLEPDGIGEEAMLTVVLPYIHNAREGVERLGELVTKYGTCESNGIAFSDANEIWYFETVGGHHWAAERIPDDRYVLAPNQTGIQEIDFQAPEHYKYSADLKDFAAKYHLNKAKEGFNFRDIFGEDTQADHYYNTPRVWYAQKMLNPEIDQDPESRTMPFSRVPSHLISVEDVAMVLSSHYQATDFDPYGQTGTPETRRRYRPIGMNRNQEMHILQIRPNMPKSHAAIHWLAEGVNIFNSPVPFFANCTTTPENFQYTPIDKSSTDSFYWLNKLIAMVADPLFAEHDWDAEFAVSESRKFGFAAGRAAVAKGDAAFADVKPEDLPAWHDALNAETAATITNDLQYLLHQLVCIRAEKMTPSFEKGGELLEHHHHHH | not soluble
